Article PMC9352346

B1: Arl15-AL-Myc [human] / GST-Smad4 [not stated] (parent)
chain 1: MSDLRITEAFLYMDYLCFRALCCKGPPPARPEYDLVCIGLTGSGKTSLLSKLCSESPDNVVSTTGFSIKAVPFQNAILNVKELGGLDNIRKYWSRYYQGSQGVIFVLDSASSEDDLEAARNELHSALQHPQLCTLPFLILANHQDKPAARSVQEIKKYFELEPLARGKRWILQPCSLDDMDALKDSFSQLINLLEEKDHEAVRM
chain 2: MDNMSITNTPTSNDACLSIVHSLMCHRQGGESETFAKRAIESLVKKLKEKKDELDSLITAITTNGAHPSKCVTIQRTLDGRLQVAGRKGFPHVIYARLWRWPDLHKNELKHVKYCQYAFDLKCDSVCVNPYHYERVVSPGIDLSGLTLQSNAPSSMMVKDEYVHDFEGQPSLSTEGHSIQTIQHPPSNRASTETYSTPALLAPSESNATSTANFPNIPVASTSQPASILGGSHSEGLLQIASGPQPGQQQNGFTGQPATYHHNSTTTWTGSRTAPYTPNLPHHQNGHLQHHPPMPPHPGHYWPVHNELAFQPPISNHPAPEYWCSIAYFEMDVQVGETFKVPSSCPIVTVDGYVDPSGGDRFCLGQLSNVHRTEAIERARLHIGKGVQLECKGEGDVWVRCLSDHAVFVQSYYLDREAGRAPGDAVHKIYPSAYIKVFDLRQCHRQMQQQAATAQAAAAAQAAAVAGNIPGPGSVGGIAPAISLSAAAGIGVDDLRRLCILRMSFVKGWGPDYPRQSIKETPCWIEIHLHRALQLLDEVLHTMPIADPQPLD

Variants of: B1
Assay: GST pull-down, immunoblot band quantification
Conditions: with GST-Smad4; HeLa cell lysates; bead-immobilized GST-Smad4; parent: 100

| percent of parent | Variant |
| --- | --- |
| 38 | chain 1 R95C |
| 22 | chain 1 R90L |

Further lines, the variant ahead of its results:

| Variant | percent of parent |
| --- | --- |
| chain 1 E82K | 95 |
| chain 1 Y96F | 47 |
